Reference: patent US7132258

Biological target: Gal4 DBD fusion of the LBD of hRARα (human)
Experiment: cell-based or functional assay

ligand-dependent transcriptional activation by Gal4 DBD fusion of RAR on a Gal4-dependent luciferase reporter, A549 cells, 100 nM atRA: 2 fold
Substance: full-length RAC3 expressed from pCMX.F.RAC3 (FLAG and HA epitope at the N-terminus) (from UniProt Q9Y6Q9 2-1424)
